Measured values published in IntAct's records for PubMed 22493017.

B1: Protein TonB (Escherichia coli (strain K12)), P02929 (parent)
chain: MTLDLPRRFPWPTLLSVCIHGAVVAGLLYTSVHQVIELPAPAQPISVTMVTPADLEPPQAVQPPPEPVVEPEPEPEPIPEPPKEAPVVIEKPKPKPKPKPKPVKKVQEQPKRDVKPVESRPASPFENTAPARLTSSTATAATSKPVTSVASGPRALSRNQPQYPARAQALRIEGQVKVKFDVTPDGRVDNVQILSAKPANMFEREVKNAMRRWRYEPGKPGSGIVVNILFKINGTTEIQ
partner: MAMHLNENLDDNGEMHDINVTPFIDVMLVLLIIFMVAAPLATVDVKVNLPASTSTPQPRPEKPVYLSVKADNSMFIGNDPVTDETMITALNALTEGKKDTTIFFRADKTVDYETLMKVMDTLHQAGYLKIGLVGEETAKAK
B2: Biopolymer transport protein ExbD (Escherichia coli (strain K12)), P0ABV2 (parent)
chain: B1 partner

Variants of: B1
Details: with exbd_ecoli exbD, P0ABV2

Variant | effect of a mutation on the interaction
R166C | increasing interaction
A150C | increasing interaction
R212C | increasing interaction
N200C | increasing interaction
G152C | increasing interaction

Second part, the variant after the results:

effect of a mutation on the interaction | Variant
increasing interaction | F202C
increasing interaction | L170C
increasing interaction | R204C
increasing interaction | Q168C
increasing interaction | P164C

Variants of: B2
Details: with tonb_ecoli tonB, P02929

Variant | effect of a mutation on the interaction
D25N | decreasing interaction
A92C | increasing interaction

Second part, the variant after the results:

effect of a mutation on the interaction | Variant
increasing interaction | T109C
increasing interaction | K97C
